Assay: yeast display, Sf9 membrane polyspecificity reagent, FACS + sequencing; frameworks hold sequencing errors
How it was run: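 A synthetic nanobody library was expressed on Saccharomyces cerevisiae BJ5465 by galactose induction for 36–48 hours. The library was stained for 1 hour at 4 °C with 10% biotinylated, detergent-solubilized Sf9 membrane reagent and enriched with streptavidin microbeads before FACS. Low and high (top ~1%) gates were set on anti-HA fluorescence for expression and streptavidin fluorescence for reagent binding, and each polyreactivity label reflects the gate of origin.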

Sequence	polyreactivity (PSR sort gate)
QVQLVESGGGLVQAGGSLRLSCAASGSTFQSNAMGWYRQAPGKERELVATISWSGGITYADSVKGRFTISRDNAKNTVYLQMNSLKPEDNAVHYFTDPDFDYWGQGTQVTLSS	low polyreactivity
QVQLVESGGGLVQAGGSLRLSCAASGSIFGYYVMGWYRPAPGKERELVAGISYSGGRTYYADSVKGRFTISRDNAKNTVYLQMNSLQPEDTAVYYCAAEGTTSWWVKYGYWGQGTQVTVSS	low polyreactivity
QVQLVESGGGLVQAGGSLRLSCAASGRIFSKYTMGWYIQAPGKEMELVAAISGSGTSTYYADSVKGRFTISRDNAKNTVYLQMNSLKPEDTAVYYCNAVKSWGHPGRYYWGQGTQVTVSS	high polyreactivity
QVQLVESGGGLVQAGGSLPLSCAASGSTFLQYAMGWYRQAPGKERELVAAIRGRGDSTYYADSVNGRFTISRDNEMNTVYLQMNSLKPVDSAVYSCAARGQGSRGMYYWGQGTKVTVSS	low polyreactivity
QVQLVESGGGLVQAGGSLRLSCAASGLIFVRYAMGWYRQAPGKERELVADISTSDGSTRYADSVKGRFTISRDNEKNTVYLQMNSLKPEDTAVYYCAGGSEYYSYGGVRFSFYYWGQGTQVTVSS	low polyreactivity
QVQLQESGGGLVQAGGSLRLSCAASGPISRRSTMGWYRQAPGKERELVTAITRGTNTNYADSVKGRFTISRDNAKNTEYLQMYCLKPEDTAVYYCAAYGVLKPSRGDAVFHRYWGQGTQVTVSS	low polyreactivity
QVQLVESGGGLVQAGGSLRLSCAASGYTLADYAMGWYRQAPGKERELVAAISSGGITSYADSVKGRFTISRDNAKNTVYLQMNSLKPEDTAVYYCNAAIVGFTRAYQYDYWGQGTQVTVSS	high polyreactivity
QVQLVESGGGLVQAGGSLRLSCAASGSIFVEYVMGWYRQAPGKERELVADISWRDGDTYYADSVKGRFTISRDNAKNTVYLQMNSLKPEDTAVYFCAADVIVPESYGYWPLSYYYWGQGTQVTVSS	low polyreactivity
QVQLVESGGVLVQAGGSLRLSCAASGSTFYGYAMGWYRQAPGKERELVAAITRSGGSTYYADSVKGRFTISRDNAKNTVYLQMNSLKPEDTAVYYCARQDRDTYYHRYYYWGQGTQVTVSS	high polyreactivity
QVQLVESGGGLVQAGGSLRLSCAASGFTFTYNAMGWYRQAPGKERELVAAITANGGGTNYADSVKGRFTISRDNAKNTVYLQMNSLKPEDTAVYYCAATIVVAVFESLVFYWYTEDNYWGQGTQVTVSS	low polyreactivity
QVQLVESGGGLVQAGGSLRLSCAASGITYYRNAMGWYRQAPGKERELVAAISWSGGRTYYADSVKGRFTISRDNAKNTVYLQMNSLKPEDTAVYYCNKYTHYYDYDYWGQGTQVTVSS	high polyreactivity
QVQLVESGGGLVQAGGSLRLSCAASGLTIWKYTMGWYRQAPGKERELVAAISISGTNTYYADSVKGRFTISRDNAKNTVYLQMNSLKPEDTAVYYCAAVRGYPPTNYYYWGQGTQVSVSS	high polyreactivity
QVQLVESGGGLVQAGGILRLSCAASGIIFDTNAMGWYRQAPGKERELVASISKRGGSTYYADSVKGRFTISRDNAKNTVYFQMNSLKPEDTAVYYCNALRRRLYHDDYWGQGTQVTVSS	high polyreactivity
QVQLVESGGGLVQAGGSLRLSCAASGPTFRRYGMGWYRQAPGKERELVDAITTRGGSTYYADSVKGRFTISRDNAKNTVYLQMNSLKPEDTAVYYCAAPRKYFYSSATGNYWGQGTQVTVSS	high polyreactivity
QVQLVESGRGLVQAGGSLRISCAASGSTFGYYAMGWYRQAPGKERELVAAITSTGRTKYADSVKGRFTISRDNAKNTVYLQMNSLKPEDTAVYYCAADIWGQGTQVTVSS	high polyreactivity
QVQLVESGGGLVQAGGSLRLSCAASGRIFAYYAMGWYRQAPGKERELVAAISGSDGSTYYADSVKGRFTISLDNAKNTVYLQMNSLKPEDTAVYYCAAQDTPGYDYWGQGTQVTVSS	low polyreactivity
QVQLVESGGRLVQAGGSLRLTCAASGSTFSRYAMGWSRQAPGKERELVAAITGSGGNTYYADSVKGRFTISRDNAKNTVYLQMNSLKPEDTAVYYCAAEDYVGWYNFEYWGQGTQVTVSS	high polyreactivity
QVQLVESRGGLVQAGGSLRLSCAASGSIFAIYTMGWYRQAPGKERELVAAITGNGGRTYYADSVKGRFTISRDNAKNTVYLQMNSLKPEDTAVYYCAVVGYHRDYDYWGQGTQVTVSS	low polyreactivity
QVQLVESGGGLVQAGGSLRLSCAASGNTYTSYAMGWYRQAPGKDRELVAAISASGSSTYYADSVKGRFTISRDNAKNTVYLQMNSLKPEDTAVFYCARQWYWRPGYYMGQGYEYWGQGTQVTVSS	low polyreactivity
HVQQQESGGGLVQAGGSLRLSCAASGYISVFIGMGWYRQSPGKERELVASIAYGAITYYTDSVKGRFTMSRDYAKNTEYLQMNSLKPEDTAVYYCATRRYYRYYNFWYYYWGQGTQVTVSS	high polyreactivity
QVQLVESGGGLVQAGGSLRLSCAASGFTFYKYTMGWYRQAPGKERELVAAISARGGSTYYADSVKGRFTISRDNAKNTVYLQMNSLKPEDTAVYYCAADYWRTYVLGYDYWGQGTQVTVSS	high polyreactivity
QVQLVESGGRLVQAGGSLRLSCAASGSTFGRYVMGWYRQTPGKERELVAAISYSGGRTYYADSVKLRFTISRDNAKNTVYLQMNSLNPEDTAVFYCATRVTLTRWLYDYWGQGSQVTVSS	high polyreactivity

Sequence	polyreactivity (PSR sort gate)
QVQLVESGGGLVQAGGSLRLSCAASGTFAGNAMGWYRQAPGKERELVAAINSGGSTNYADSVKGRFTISRDNAKNTVYLQMKSLKPEDTAVYYCAADSVWSPVDYDYWGQGTQVTVSS	low polyreactivity
QVQLLESGGGLVQAGGSLRLSCAASGFTFTYYAMGWYRQAPGKERELVAAISRRGGSTYYADSVKGRFTISRDNAKNTVYLQMNSLKPEDTAVYYCARDYNSAVGMVYWGQGTQVTVSS	high polyreactivity
QVQLVESGGGLVQAGGSLRLSCAASGSIFSGYTMGWYRQAPGKDRELVAGISYRGGSTYYADSVKGRFTISRDNAKNTVYLQMNSLKPEDTAVYYCAALYYRRGSLNYEYWGQGTQVTVSS	high polyreactivity
QVQLVESGGGLVQAGGSLRLSCAASGSTFYTYTMGWYRQAPGKERELVAAISTRGGSTYYADSVKGRFTISRDNAKNTVYLQMNCLKPEDTAVYYCAAVYRRGSGYDYWGQGNQVTVSS	high polyreactivity
QVQLVESGGGLVQAGGSLRLSCAASGRTFKIYAMGWYRQAPGKEREFVASINWSGGITYYADSVKGRFTISRDNAKNTVYLQMNSLKPEDTAVYYCAARIDSSRIGKRFYYWGQGTQVTVSS	high polyreactivity
QVQLVESGGGLVQAGGSLRLSCAASGRNFYVYAMGWYRQAPGKEREFVASITVSGSSTYYADSVKGRFTISRDNAKNTVYLQMNSLKPEDTAVYYCNTDAVRSYVWWGTSLYDYWGQGTLVTVSS	low polyreactivity
QVQLVESGGGLVQAGGSLRLSCAASGNIFGKNVMGWYRQAPGKEREFVAAITSRGGRTNYADSVKGRFTISRDNAKNTVYLQMNSLKPEDTAVYYCATRYKSPSFDYWGQGTQVTVSS	high polyreactivity
QVQLVESAGGLVQAGGSLRLSCAASGRILFGYAMGWYRQAPGKERELVADITSTGSTNYADSVKGRFTISRDNAKNTVYLQMNSLKPEDTAVYYCNVDDTSWTTSGGRFGQVESDYWGQGTQVTVSS	low polyreactivity
QVQLVESGGGLLQAGGSLRLSCAASGSTFSSYAMGWYRPAPGKERELVAAITSSGGSTYYADSVKGRFTISRDNAKNTVYLKLNSLKPEDTAVYYCAAADVIFWLYYYWGQGTQVTVSS	low polyreactivity
QVQLVESGGGLVQAGGSLRLTCAASGFTFSEYAMGWYRQAPGKEMEVVAAISWRGGSTYYADSVKGRFTISRDNAKNTVYLQMNSLKPEDTAVYYCAADSSGVYASWYKMDYWGKGTQVTVSS	high polyreactivity
QVQLVESGGGLFQAGVSLRLSCAASGSTIGVNAMGWSRKAPGKERELVAAISRGGGRTYYADSVKWRFTISRDIAKKTVYLQMICLKPEDTAVYYCNTDFGARMGYWGQGTEVTVSS	high polyreactivity
QVQLVDSGGGLVQAGGSLRLSCAASGITFGYYAMGWYRQAPGKERELVAAISFTGASTYYADSVKGRFTISRDNAKNTVYLQMYSLKPEDTAVYYCAADPYVPYHDFLSGFDYWGQGTQVTVSS	low polyreactivity
QVQLVESGGGLVQEGGSLSLSCAASGFTFYYYAMGLYRQAPGKERELVASISWRGGSTYYADSVKGRFTISRDNAKNTVYLQMNSLKPEDTAVYYCAAQKRGSPGYRRDYWGQGTQVAVSS	high polyreactivity
QVQLVESGGGLVQAGGSLRLSCAASGFIFPWYAMGWYRQAPGKERELVAAISWSGGSTYYADSVKWRFTISRDNAKNTVYLQMNSLKPEDTAVYYCNDLYGRPGYDYWGQGTQVTVSS	low polyreactivity
QVQLVESGGGLVQAGGSLRLSCPASGSTLAWYTMGWYRQAPGKEREFVAVITGSGGSTFYADSVKGRFTISRDNAKNTVYLQMNSLKPEDTAVYYCAADYLYYVTQHRRFHLDYWGQGTQVTVSS	low polyreactivity
QVQLVESGGGLVQAGGSLRLSCAASGGTFGVYAMGWYRQAPGKERELVAAIDWDDGNTYYADSVKGRFTLSRDNAKNTVYLQMNSLKPEDTAVYYCAAVVFSRRYWVKFYYWGQGTQVTVSS	high polyreactivity
QVQLGESGGGLVQAGGSLRLSCAASGSIFSRYTMGWYREAPGKERELVAAITSSGGRTYYADSVKGRFTISRDNAKNTVYLQMNRLKAEDTAVYYCAARYFSSFPLYYYWGQGTQVTVSS	high polyreactivity
QVQLVDSVGGLVQAGGSLRISCAASGSIFGFYAMGWYRQSPGKERELVAAISQRGGNTYYADSVKRRFTISRDNAKNTVYLQMNSLKPEDTAFYFCASDKHPYKRHWYYTYDYWGLGTQVTVSS	high polyreactivity
QVQLVESGGGLVQAGCSLRLSCAASGSIFRVYAMGWYRQAPGKEREFVAAITRSGGSTYYADSVKGRFTISRDNAKNTVYLQMNSLKPEDTAVYYCNAVYYSWAQSARFDYWGQGTQVTVSS	low polyreactivity
QVQLVESGGGLVQAGGSLRLSCAASGIIFIKYAMGWYRQAPGKERELVAGINVSSGGDTYADSVKGRFTISRDNAKNTVYLQMNSLKPEDTAVYYCNAGTGGPDYVFITEYDYWGQGTQVTVSS	low polyreactivity
QVQLVESGRGLVQAGGSLRLSCAASGSIFSYYAMGWYIQAPGKERELVAAITVRGGSTYYADSVKGRFTISRDNAKNTVYLQMNSLKPEDTAVYYCAAVPGYTHLWGGPFDYWGQGTQVTVSS	low polyreactivity

— the nanobody polyreactivity screen of Harvey et al. (2022)
